The conditions of data set [1]: pH 8.
Data set [2] in a line: physchem. The following applies: pH 9.5.
A short description of data set [3]: Enzyme screen for hydrolysis of lovastatin or lovastatin acid. To be noted: 2.5 mM substrate, 100 mM phosphate buffer/co-solvent pH 7 to 8, 30° C., 48 h; confirmed at 1 mM. The class given is biochemical. On the procedure: (§1) Any method for screening for enzymes for use in the methods of the invention, e.g., enzymes for the hydrolysis of lovastatin, lovastatin acid, 4-acetyl simvastatin or simvastatin, can be used, and, these methods are well known in the art. For example, in one exemplary set of screen conditions used to determine an enzyme(s) to be used in a method of the invention comprises use of 2.5 mM substrate, 100 mM phosphate buffer/co-solvent pH 7 to pH 8, 30° C., 48 h, with the following composition: (i) lovastatin or simvastatin in MTBE/buffer, (ii) lovastatin or simvastatin in toluene/buffer, (iii) lovastatin acid or simvastatin acid in 10% methanol/buffer. Screen results were confirmed at 1 mM substrate. […] SEQ ID NO:4 and SEQ ID NO:2 were further evaluated at 25, 50 and 100 mM lovastatin acid in 10% MeOH/buffer, pH 9, the more soluble lovastatin acid being used as substrate for convenience.

Data set [4] can be described thus: Enzyme screen for hydrolysis of simvastatin. The class given is biochemical. To be noted: 2.5 mM substrate, 100 mM phosphate buffer/co-solvent pH 7 to 8, 30° C., 48 h; confirmed at 1 mM. On the procedure: as §1
Data set [5] can be described thus: Comparison of genomic clones for hydrolysis of lovastatin acid under standard conditions. The class given is biochemical. The following applies: same total protein concentration or same activity normalized against MUB. The source says: Genomic clones comprising sequences encoding enzymes having sequences as set forth in SEQ ID NO:4, SEQ ID NO:2, SEQ ID NO:6 (e.g., encoded by exemplary SEQ ID NO:3, SEQ ID NO:1, and SEQ ID NO:5, respectively), were compared for the hydrolysis of lovastatin acid under standard conditions (the same total protein concentration, or the same enzyme activity normalized against the fluorescent substrate, methylumbelliferyl butyrate (MUB)).

Data set [6] is described as follows: Large-scale hydrolysis of lovastatin, specific activity of esterase. The class given is biochemical. To be noted: 100 g scale, 0.5 M lovastatin. On the procedure:
The in situ hydrolysis of lovastatin with SEQ ID NO:4 was optimized such that insignificant amounts of NaCl generated: 0.85 g lovastatin in MeOH and equimolar NaOH added. Clarified lysate of E. coli containing SEQ ID NO:4 was added to lovastatin acid. […] See FIG. 27 for an illustration summary of the results.
The results of Response Surface Analysis (RSA) can be applied to large-scale hydrolysis of lovastatin, e.g., using a protocol as illustrated in FIG. 28: • Reaction performed successfully on 100 g scale (0.5 M); • 97.5% conversion in 27 h; • Productivity: x g/g esterase/h; • Specific activity: 0.084 μmol/mg esterase/min.

Data set [7] can be described thus: Heat pre-treatment of lovastatin esterase, then lovastatin hydrolysis. The class given is biochemical. The following applies: 60° C. for 30 min, centrifuged, supernatant used. The source says: Heat treatment has often been used as a convenient method to purify crude enzyme preparations when there is differential thermal stability between the desired enzyme and other contaminating proteins.

Five molecules from patent US7700329B2, “Methods for making simvastatin and intermediates” (priority 2003, dated 2010) can be followed below.

The term solubility denotes how much of the substance goes into solution per volume.

≈ marks a conversion by molar mass, not a printed value.

In data set [1], `CCC(C)(C)C(=O)O[C@H]1C[C@@H](C)C=C2C=C[C@H](C)[C@H](CC[C@@H]3C[C@@H](OC(C)=O)CC(=O)O3)[C@H]21` [4-acetyl simvastatin] yielded an elimination of 13%.
In turn, `C[C@H]1C=C2C=C[C@H](C)[C@H](CC[C@@H](O)C[C@@H](O)CC(=O)O)C2[C@@H](O)C1` (stereo partly drawn) [Triol acid] gave a solubility in data set [2] of about 200 mM (≈ 67.7 mg/mL).

B1: SEQ ID NO:6: feruloyl esterase encoded by SEQ ID NO:5 (protein)
chain: MRSAARISVAAVAFLCLLLTTRVSAQIVPAMECADLANQQLPNTTITSAQTVTTGSLTPPGSTNPITDLPPFCRVTGAIAPTSESHILFEVWLPLDKWNGKFAGVGNGGWAGIISFGALGSQLKRGYATASTNTGHEAAPGMNAARFAFEKPEQLIDFAYRSQHETALKAKALVQAFYGKPPEHSYFIGCSSGGYQGLMEAQRFPADYDGIVAGMPANNWTRLMAGDLDAILAVSVDPASHLPVSALGLLYRSVLAACDGIDGVVDGVLEDPRRCRFDPAVLMCKADQNPDGCLTPAQVEAARRIYGGLKDPKTGAQLYPGLAPGSEPFWPHRNPANPFPIPIAHYKWLVFADPNWDWRTFKFTDPADYQAFLNAEATYAPTLNATNPDLREFSRRGGRLIQYHGWNDQLIAPQNSIDYYESVLSFFGSGKQDRAQTVREVQSFYRLFMAPGMAHCGGGTGPNSFDMLDALEKWVEGGIAPERVLATRSINGVVDRLRPLCPYPQVAVYKGHGDTNDAANFVCRD
modifications: Unkown; Soil sample
B1: the “activity for the hydrolysis of lovastatin or lovastatin acid” value in data set [3] is listed as “active”.

B2: SEQ ID NO:4: novel lovastatin esterase, family VII esterase with SXXK motif, encoded by SEQ ID NO:3 (protein)
chain: MEIHGTCDPKFHLVRQEFERNLRERGEVGASVCVTLHGETVVDLWGGMARADTQTPWTAETVSIVFSSTKGATALCAHMLASRGQLDLDAPVATYWPEFAQAGKARIPVKMLLNHQAGLPAVRTPLPQGAYADWELMVNTLAKEEPFWEPGTRNGYHALTMGWLVGEVVRRVSGKSLGTFFQEEIARPLGLDFWIGLPAEQEARVAPMIAAEPDPQSLFFQEVAKPGALQSLVLLNSGGYMGAQPEYDSRAAHAAEIGAAGGITNARGLAGMYAPLACGGKLKGVELVSPDMLARMSRVASATGRDAVLMMPTRFALGFMKSMDNRREPAGVQDSALFGEEAFGHVGAGGSFGFADPKAGMSFGYTMNRMGLGAGLNPRGQSLVDATYRSLGYQSDASGAWT
modifications: Unkown; Soil sample
As to B2, the “activity for the hydrolysis of lovastatin or lovastatin acid” value in data set [3] was “active”. Also, the “activity for the hydrolysis of simvastatin” value in data set [4] is “showed activity”. Also, the “activity for hydrolysis of lovastatin acid compared among genomic clones” value in data set [5] is recorded as “best activity”. The molecule also gave a Specific activity in data set [6] of 0.084 μmol/mg esterase/min. Besides, the “activity of heat pre-treated versus untreated enzyme” value in data set [7] is “no difference in activity”.

B3: SEQ ID NO:2: feruloyl esterase encoded by SEQ ID NO:1 (protein)
chain: MSLCVIRFIAGTLVLVASVESAVAQQACADLMGLELPYTTITSAAVATEGPIPQPAIFGSTDPIVAPERCEVRAVTRPTKDSEIRIELWLPLSGWNGKYLQIGSGGWAGSINRTGLIGPLQRGYAVAATDNGHISEGLVPDASWAIGHPQKLIDFGYRAVHETSVQAKAILRAYFGRGQDLSYFSGCSNGGREALMEAQRYPEDFEGIIAGAPANNWSRLFTGFVWNERALADDPIPPAKLTAIQAAAIAACDTLDGVEDGLIENPRACSFDPRSMVCTADDASDCLTEGQVATLHRIYSGPTNPRTGERIFPGYPMGTEAVPGGWVPWIVSASSEVPSIQASFGNSYYGHAVFEQSNWDFRTLDFDQDVAFGDAKAGPVLNATNPDLRSFRANGGKLIQYHGWGDAAITAFSSIDYYENVRAFLDRFPDPRSENTDIDGFYRLFLVPGMGHCSGGIGPSSFGNGFRSARTDAEHDLLSALEAWVERDTAPERLIGTGTAVGDPTATLTRPLCPYPRTARYLGSGNSNDAANFECALPAGVQ
modifications: Unkown; Soil sample
B3: in data set [3], the “activity for the hydrolysis of lovastatin or lovastatin acid” value is on record as “active”.
